# Data taken from IntAct's records for PubMed 21217703.
# B1: Telomeric repeat-binding factor 2 (Homo sapiens), Q15554 (parent)
# chain: MAAGAGTAGPASGPGVVRDPAASQPRKRPGREGGEGARRSDTMAGGGGSSDGSGRAAGRRASRSSGRARRGRHEPGLGGPAERGAGEARLEEAVNRWVLKFYFHEALRAFRGSRYGDFRQIRDIMQALLVRPLGKEHTVSRLLRVMQCLSRIEEGENLDCSFDMEAELTPLESAINVLEMIKTEFTLTEAVVESSRKLVKEAAVIICIKNKEFEKASKILKKHMSKDPTTQKLRNDLLNIIREKNLAHPVIQNFSYETFQQKMLRFLESHLDDAEPYLLTMAKKALKSESAASSTGKEDKQPAPGPVEKPPREPARQLRNPPTTIGMMTLKAAFKTLSGAQDSEAAFAKLDQKDLVLPTQALPASPALKNKRPRKDENESSAPADGEGGSELQPKNKRMTISRLVLEEDSQSTEPSAGLNSSQEAASAPPSKPTVLNQPLPGEKNPKVPKGKWNSSNGVEEKETWVEEDELFQVQAAPDEDSTTNITKKQKWTVEESEWVKAGVQKYGEGNWAAISKNYPFVNRTAVMIKDRWRTMKRLGMN
# partner: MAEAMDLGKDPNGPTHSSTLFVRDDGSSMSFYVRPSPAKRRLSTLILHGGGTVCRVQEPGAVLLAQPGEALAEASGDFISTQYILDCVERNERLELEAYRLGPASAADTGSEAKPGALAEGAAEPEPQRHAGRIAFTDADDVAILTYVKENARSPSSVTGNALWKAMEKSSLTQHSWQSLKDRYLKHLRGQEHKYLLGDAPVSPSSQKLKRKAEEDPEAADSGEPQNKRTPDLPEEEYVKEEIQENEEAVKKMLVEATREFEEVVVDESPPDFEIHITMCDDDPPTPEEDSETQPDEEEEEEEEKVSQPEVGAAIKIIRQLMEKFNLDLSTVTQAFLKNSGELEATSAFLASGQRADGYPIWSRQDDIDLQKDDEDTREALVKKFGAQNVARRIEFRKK
# B2: Telomere length regulator taz1 (Schizosaccharomyces pombe (strain ATCC 38366 / 972)), P79005 (parent)
# chain: MISVQSTETIQKVLENEGDQQFDKEVVQNSDSNIETGQISDSLTKAVEERAETESSSNLSNFTTSESESSKPAYCFNSHSQNMAEGSISIPVISHSMNVENEVSTAEGQDSRTGESENDQNAMIVRSIWDIEKASLLVNDCQNIANMAEQKVMMVSAIFSESSKDIVNPESFSERLGKETVKDLYEFNEQLTTKYGLEFRTIFFSYIRKYDAYWCLFEDLEKPLKSIQFFTGLIDLLDNTNKHLTLRSIVLDALLSADEEDSFYGDALVLFEELVIRYFGTDSNPSIDASEFILSCLPYTSLDALNVVCGQVWKSQKICDFLKSTIGNTSNSPLQLRASFPAFVNAVIHFLLEFKNVRRLERKDLSVKGMLYDSDSQQILNRLRERVSGSTAQSADEASGHESDASEDTFSERTLGLNSIDNTEISEVVSLGLVSSALDKITGLLSADNLSETVSQARDFSHTLSKSLKSRAKSLSQKEAANRSKLIAKRGDNLRREASLSSEQDDLSEDFPPVRESDEQESRSGGRSSAMRVSIERSAARSGTRRSQGNPYEGYRTRRKWTDEEENELYEMISQHGCCWSKIIHIQKLENGPLKTFGPTQIKDKARLIKARFMKQNRLQELYSKSLNWKNVTVGQAYCELHKIPYIEATPPLLREELVNYQS
# partner: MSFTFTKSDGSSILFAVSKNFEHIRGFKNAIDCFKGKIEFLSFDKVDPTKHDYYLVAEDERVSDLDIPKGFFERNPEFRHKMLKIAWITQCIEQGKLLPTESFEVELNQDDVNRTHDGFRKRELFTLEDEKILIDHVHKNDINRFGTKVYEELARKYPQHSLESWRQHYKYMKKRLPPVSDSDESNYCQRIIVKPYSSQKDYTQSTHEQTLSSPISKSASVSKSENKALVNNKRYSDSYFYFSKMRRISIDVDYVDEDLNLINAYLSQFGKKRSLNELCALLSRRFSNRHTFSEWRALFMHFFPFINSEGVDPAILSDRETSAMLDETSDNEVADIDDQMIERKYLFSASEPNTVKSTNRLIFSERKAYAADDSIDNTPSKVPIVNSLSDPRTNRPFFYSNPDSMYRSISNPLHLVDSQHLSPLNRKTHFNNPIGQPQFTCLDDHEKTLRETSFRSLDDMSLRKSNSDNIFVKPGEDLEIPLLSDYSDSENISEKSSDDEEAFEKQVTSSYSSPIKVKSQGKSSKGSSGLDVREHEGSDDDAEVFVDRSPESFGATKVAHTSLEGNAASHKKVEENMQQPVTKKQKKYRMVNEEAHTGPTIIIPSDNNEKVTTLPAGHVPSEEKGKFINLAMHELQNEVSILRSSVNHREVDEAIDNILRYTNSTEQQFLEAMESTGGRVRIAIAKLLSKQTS
# B3: DNA-binding protein rap1 (Schizosaccharomyces pombe (strain ATCC 38366 / 972)), Q96TL7 (parent)
# chain: B2 partner
# partner: B2 chain
# B4: Telomeric repeat-binding factor 2-interacting protein 1 (Homo sapiens), Q9NYB0 (parent)
# chain: B1 partner
# B5: DNA-binding protein RAP1 (Saccharomyces cerevisiae), P11938 (parent)
# chain: MSSPDDFETAPAEYVDALDPSMVVVDSGSAAVTAPSDSAAEVKANQNEENTGATAAETSEKVDQTEVEKKDDDDTTEVGVTTTTPSIADTAATANIASTSGASVTEPTTDDTAADEKKEQVSGPPLSNMKFYLNRDADAHDSLNDIDQLARLIRANGGEVLDSKPRESKENVFIVSPYNHTNLPTVTPTYIKACCQSNSLLNMENYLVPYDNFREVVDSRLQEESHSNGVDNSNSNSDNKDSIRPKTEIISTNTNGATEDSTSEKVMVDAEQQARLQEQAQLLRQHVSSTASITSGGHNDLVQIEQPQKDTSNNNNSNVNDEDNDLLTQDNNPQTADEGNASFQAQRSMISRGALPSHNKASFTDEEDEFILDVVRKNPTRRTTHTLYDEISHYVPNHTGNSIRHRFRVYLSKRLEYVYEVDKFGKLVRDDDGNLIKTKVLPPSIKRKFSADEDYTLAIAVKKQFYRDLFQIDPDTGRSLITDEDTPTAIARRNMTMDPNHVPGSEPNFAAYRTQSRRGPIAREFFKHFAEEHAAHTENAWRDRFRKFLLAYGIDDYISYYEAEKAQNREPEPMKNLTNRPKRPGVPTPGNYNSAAKRARNYSSQRNVQPTANAASANAAAAAAAAASNSYAIPENELLDEDTMNFISSLKNDLSNISNSLPFEYPHEIAEAIRSDFSNEDIYDNIDPDTISFPPKIATTDLFLPLFFHFGSTRQFMDKLHEVISGDYEPSQAEKLVQDLCDETGIRKNFSTSILTCLSGDLMVFPRYFLNMFKDNVNPPPNVPGIWTHDDDESLKSNDQEQIRKLVKKHGTGRMEMRKRFFEKDLL
# Variants of: B1
# Conditions: with te2ip_human TERF2IP
row,effect of a mutation on the interaction,Variant
1,disrupting interaction strength,L330E
2,disrupting interaction strength,L330R

# Variants of: B2
# Conditions: with rap1_schpo rap1, Q96TL7
row,effect of a mutation on the interaction,Variant
1,disrupting interaction strength,I379R
2,disrupting interaction strength,I379A
3,disrupting interaction,R386E
4,decreasing interaction,L380R
5,decreasing interaction,R384E
6,disrupting interaction,L383A
7,disrupting interaction,L383R

# Variants of: B2
# Conditions: with rap1_schpo rap1, Q96TL7
# Remark: another data set of the same source
row,effect of a mutation on the interaction,Variant
1,disrupting interaction,I379R
2,decreasing interaction,V387R

# Variants of: B3
# Conditions: with taz1_schpo taz1, P79005
row,effect of a mutation on the interaction,Variant
1,disrupting interaction,I655R
2,decreasing interaction,V651R

# Variants of: B4
# Conditions: with terf2_human TERF2, Q15554
row,effect of a mutation on the interaction,Variant
1,disrupting interaction,F336R
2,disrupting interaction,I318R

# Variants of: B5
# Conditions: with sir3_yeast SIR3, P06701
# Chain of sir3_yeast SIR3, P06701 (P06701 whole entry): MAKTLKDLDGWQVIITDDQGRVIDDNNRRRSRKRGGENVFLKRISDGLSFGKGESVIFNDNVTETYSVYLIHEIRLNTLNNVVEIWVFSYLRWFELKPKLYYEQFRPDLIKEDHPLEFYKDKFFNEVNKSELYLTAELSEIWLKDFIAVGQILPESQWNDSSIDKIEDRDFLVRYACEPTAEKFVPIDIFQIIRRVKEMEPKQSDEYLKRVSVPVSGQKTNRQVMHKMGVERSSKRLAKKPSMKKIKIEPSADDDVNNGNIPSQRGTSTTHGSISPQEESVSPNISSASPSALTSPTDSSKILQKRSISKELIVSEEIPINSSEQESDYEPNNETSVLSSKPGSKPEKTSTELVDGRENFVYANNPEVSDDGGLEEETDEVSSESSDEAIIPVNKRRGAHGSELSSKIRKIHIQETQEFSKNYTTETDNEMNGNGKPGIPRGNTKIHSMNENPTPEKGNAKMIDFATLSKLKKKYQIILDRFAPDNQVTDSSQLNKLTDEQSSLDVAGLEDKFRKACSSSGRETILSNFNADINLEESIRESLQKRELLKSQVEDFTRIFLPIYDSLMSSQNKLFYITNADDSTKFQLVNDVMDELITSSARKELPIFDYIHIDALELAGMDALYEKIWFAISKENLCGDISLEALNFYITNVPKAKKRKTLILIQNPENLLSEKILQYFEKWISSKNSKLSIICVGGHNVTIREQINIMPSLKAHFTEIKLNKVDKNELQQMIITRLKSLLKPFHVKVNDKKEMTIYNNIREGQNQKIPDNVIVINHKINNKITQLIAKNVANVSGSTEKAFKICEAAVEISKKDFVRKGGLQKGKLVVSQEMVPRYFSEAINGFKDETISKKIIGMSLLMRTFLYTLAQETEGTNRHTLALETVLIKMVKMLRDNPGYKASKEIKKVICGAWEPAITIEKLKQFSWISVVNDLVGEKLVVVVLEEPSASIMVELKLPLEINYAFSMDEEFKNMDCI
row,effect of a mutation on the interaction,Variant
1,disrupting interaction,G760R
2,disrupting interaction,A733R
3,disrupting interaction,V737R
4,decreasing interaction,P730R
5,disrupting interaction,L755R
